The target in test [1] is ferroportin (human (endogenous in HEK 293 and iPSC-derived ECs)) (UniProt Q9NP59).
Test [2] shares this target. The source holds these as a separate data set.
For test [3] the target is unchanged. This is another data set of the same source.

Chain of UniProt Q9NP59 (Q9NP59 whole entry): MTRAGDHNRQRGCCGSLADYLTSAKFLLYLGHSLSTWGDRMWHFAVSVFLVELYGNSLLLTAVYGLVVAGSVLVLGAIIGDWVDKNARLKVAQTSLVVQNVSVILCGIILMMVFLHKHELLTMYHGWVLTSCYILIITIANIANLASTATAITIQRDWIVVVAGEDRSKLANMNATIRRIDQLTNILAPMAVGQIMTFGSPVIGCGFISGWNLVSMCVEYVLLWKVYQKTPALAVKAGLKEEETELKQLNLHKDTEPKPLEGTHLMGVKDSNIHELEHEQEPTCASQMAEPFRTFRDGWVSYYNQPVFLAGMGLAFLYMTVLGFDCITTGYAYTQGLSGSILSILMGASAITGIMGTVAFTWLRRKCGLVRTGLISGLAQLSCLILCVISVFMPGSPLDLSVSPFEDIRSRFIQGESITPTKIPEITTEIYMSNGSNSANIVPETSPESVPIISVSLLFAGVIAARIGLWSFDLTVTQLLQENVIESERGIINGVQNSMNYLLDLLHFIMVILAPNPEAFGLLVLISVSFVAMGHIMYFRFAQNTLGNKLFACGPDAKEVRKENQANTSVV

On to hepcidin (peptide), for which, in test [1], the membrane Fpn in HEK 293 cells with 500 nM hepcidin, 5-60 min (membrane protein isolation, immunoblot), compared to holo-Tf treatment was found to be 70%.
In test [2], “holo-transferrin (iron bound transferrin) (from UniProt P02787 20-698) (natural protein)” gave a Fpn protein level in iPSC-derived ECs after 8 h with increasing concentrations of holo-Tf in the basal chamber (immunoblot), from 0.1 μM of 50%. Further, the Fpn protein level in iPSC-derived ECs with 0.25 μM holo-Tf over time, intervals of 1 h up to 5 h (immunoblot) in test [3] is 50%. In addition, the membrane Fpn in HEK 293 cells with 0.25 μM holo-Tf, 5-60 min (membrane protein isolation, immunoblot), compared to control in test [1] is 20%.

The values are drawn from paper PMC10243088.
